Data from patent US20240368668A1, “SUBSTRATES AND BIOMARKERS OF ADAMTS7” (The Broad Institute, Inc., priority 2021, published 2024).
Square brackets hold non-standard residues; d marks the D form. Ends that are not written are not given here.

Molecular target: T1, mouse ADAMTS7 (Mus musculus, UniProt Q68SA9)
T1 construct: Full-length mouse Adamts7 1-1857 (Uniprot Q68SA9, WT or E373Q catalytic mutant); expressed in transfected cells; host or cells: Human Coronary Artery Smooth Muscle Cells (HCA-SMC, Lonza), adenovirus 50 MOI
T1 sequence (Q68SA9 221-1657): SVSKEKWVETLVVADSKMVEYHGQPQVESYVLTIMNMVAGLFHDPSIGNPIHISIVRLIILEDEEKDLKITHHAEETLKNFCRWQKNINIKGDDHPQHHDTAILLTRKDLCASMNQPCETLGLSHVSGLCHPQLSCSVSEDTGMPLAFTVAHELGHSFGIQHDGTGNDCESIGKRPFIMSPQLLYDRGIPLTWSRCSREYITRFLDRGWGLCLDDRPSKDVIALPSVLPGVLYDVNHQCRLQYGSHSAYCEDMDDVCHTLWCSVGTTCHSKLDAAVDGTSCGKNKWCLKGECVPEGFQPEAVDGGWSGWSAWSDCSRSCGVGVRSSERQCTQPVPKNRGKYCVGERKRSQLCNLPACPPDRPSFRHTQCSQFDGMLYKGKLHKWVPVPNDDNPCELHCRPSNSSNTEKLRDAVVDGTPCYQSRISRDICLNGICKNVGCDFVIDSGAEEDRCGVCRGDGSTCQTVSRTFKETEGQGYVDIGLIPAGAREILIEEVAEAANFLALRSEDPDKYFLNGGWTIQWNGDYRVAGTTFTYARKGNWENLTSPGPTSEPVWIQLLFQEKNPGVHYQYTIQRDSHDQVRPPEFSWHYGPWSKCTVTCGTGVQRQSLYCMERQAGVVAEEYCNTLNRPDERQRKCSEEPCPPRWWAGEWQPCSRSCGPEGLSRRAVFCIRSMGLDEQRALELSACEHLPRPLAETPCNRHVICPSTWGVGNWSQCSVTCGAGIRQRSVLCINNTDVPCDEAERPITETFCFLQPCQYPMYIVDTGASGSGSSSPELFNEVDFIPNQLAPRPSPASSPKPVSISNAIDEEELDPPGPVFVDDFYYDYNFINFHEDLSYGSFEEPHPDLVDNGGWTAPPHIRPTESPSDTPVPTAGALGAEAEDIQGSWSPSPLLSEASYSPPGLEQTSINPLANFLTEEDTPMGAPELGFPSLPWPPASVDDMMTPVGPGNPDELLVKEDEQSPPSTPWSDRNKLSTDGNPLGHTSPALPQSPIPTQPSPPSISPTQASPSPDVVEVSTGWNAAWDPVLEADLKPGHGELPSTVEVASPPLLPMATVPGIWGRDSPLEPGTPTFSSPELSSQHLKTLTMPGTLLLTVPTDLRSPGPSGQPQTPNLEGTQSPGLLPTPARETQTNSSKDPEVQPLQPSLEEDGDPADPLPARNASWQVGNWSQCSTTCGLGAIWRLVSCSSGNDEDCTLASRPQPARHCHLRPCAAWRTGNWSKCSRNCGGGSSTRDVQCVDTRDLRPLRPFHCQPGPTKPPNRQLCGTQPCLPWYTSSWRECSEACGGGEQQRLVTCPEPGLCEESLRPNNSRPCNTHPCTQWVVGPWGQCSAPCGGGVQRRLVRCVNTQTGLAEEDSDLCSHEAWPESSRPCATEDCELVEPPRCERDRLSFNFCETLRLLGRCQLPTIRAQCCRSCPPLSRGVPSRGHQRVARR
Test: TMT10 TAILS N-terminomics, SMC1 experiment (Ad-mADAMTS7 WT vs EQ vs Luc, technical replicates, trypsin digest)
Type: cell-based
Details: TAILS neo-N-terminal peptide abundance; log fold change, Ad-mADAMTS7 WT over Luc
Description: ADAMTS7 Expression, Cell Culture and Preparation of the Secreted Proteins—Full-length mouse Adamts7 1-1857 (Uniprot Q68SA9, WT or E373Q catalytic mutant) with a carboxyl terminal 3xFLAG tag was used to generate custom adenoviruses as previously described. Adeno-CMV-Luciferase (Ad-Luc) from Vector Biolabs was used as a negative control. Human Coronary Artery Smooth Muscle Cells (HCA-SMC) were obtained from Lonza and expanded in Lonza SmGM-2 media in 15 cm tissue culture plates. Twenty-four hours before media collection, near confluent plates were transduced with 50 MOI adenovirus and switched to Lonza Basal SM media with volumes of 20 ml per 15 cm plate. Expression of the Flag tagged ADAMTS7 was confirmed from the media using western blot and detected using the anti-Flag M2-HRP antibody (Sigma, A8592). Collected media was processed by adding protease inhibitors (1 mM EDTA and 1 mM PMSF) and clarified by 500 g×5 min spin at 4 C to pellet cell debris. Cell media supernatants were then passed through a 0.22 um filter and kept chilled. Processed media was then concentrated 50-100× using 3 kDa Centricon Plus-70 filter unit, spun at 3,500 g×60 min at 4 C. Approximately 10% of the processed, concentrated media was set aside for total secretome proteolytic analysis. The remaining 90% of the processed, concentrated media was buffer exchanged into 50 mM HEPES pH 8.0, 150 mM NaCl (2×50 ml) using the 3 kDa Centricon Plus-70 filter unit and concentrated to >2 mg/ml to serve as input for the TAILS experiment. Secretome and TAILS input samples were stored at −80° C.
For the first experiment, referred to as SMC1, 120 ml of media from 6×15 cm dishes was pooled from each condition (Luc, WT, EQ) and processed to produce three separate inputs for the TAILS experiment. Luc, WT and EQ inputs from the SMC1 experiment were each divided into triplicate 400 ug samples to generate technical replicate TAILS data. For the second experiment, referred to as SMC2, media was processed separately in triplicate for each condition (Luc1, Luc2, Luc3, WT1, WT2, WT3, EQ1, EQ2, EQ3) using 60 ml of media from 3×15 cm dishes for each process replicate. Inputs from the SMC2 experiment used process replicates of 300 ug each to generate TAILS data. The third experiment used input from cultured Human umbilical vein endothelial cells (HUVEC) from Lifeline Cell Technology grown in VascuLife Media and transduced in Lifeline Basal EC (+bFGF2 10 ng/ml). The HUVEC experiment used the same strategy as the SMC2 experiment, with 40 ml of media from 2×15 cm dishes for each process replicate and used 200 ug each to generate TAILS data. Inputs for process replicate experiments were restricted to the lowest concentration from the 9 parallel samples for SMC2 or HUVEC.
TMT10 isotopic labeling and negative selection of non-labeled peptides-Sample preparation was performed based on the TAILS protocol from the Overall lab with some modifications. From a single experiment, nine parallel protein samples in 50 mM HEPES pH 8.0, 150 mM NaCl were separately denatured with guanidinium chloride (Sigma, G4505) to reach a final concentration of 2.5M guanidinium chloride and 250 mM HEPES and incubated at 65° C. for 15 min. Reduction was achieved through addition of tris(2-carboxylethyl) phosphine (TCEP) at a final concentration of […] and incubated at 65° C. for 45 min. Alkylation reaction was performed with addition of iodoacetamide (IAA, Sigma, A3221) to a final concentration of 10 mM IAA for 15 min at room temperature in the dark. Following denaturation, reduction and alkylation steps, ten percent of each of the nine parallel protein samples was removed and combined to serve as a pooled reference. Isobaric tags were added to free amine groups using the TMT10plex Isobaric Mass Tagging Kit (ThermoFisher, 90113) with TMT channels randomly assigned to the nine samples and TMT 131 assigned to the pooled reference. […]

Substance | logFC.mWT.over.Lux
HTRA1_33 (LAAGCPDR; listed as Homo sapiens) | 2.87
IFI30_43 (YKTGNLYLR; listed as Homo sapiens) | 3.19
IGFBP3_31 (SAGLGPVVR; listed as Homo sapiens) | 2.46
IGFBP3_32 (AGLGPVVR; listed as Homo sapiens) | 4.06
LOXL2_38 ([code q]QPAPEYHQPQAPANVAKIQLR; not fully specified; listed as Homo sapiens) | 1.37
LOX_80 (ANASAQQPR; listed as Homo sapiens) | 2.02
LTBP1_393 (LTATNFR; listed as Homo sapiens) | 4.03
LTBP1_494 (SVQIHQVSR; listed as Homo sapiens) | 2.61
LTBP1_546 (HVYPVAAKTQLGR; listed as Homo sapiens) | 3.62
LTBP2_533 (SGEPPRPLPPAAPR; listed as Homo sapiens) | 1.34
LTBP2_677 (SLGPGTCTLPLAQR; listed as Homo sapiens) | 0.90
LTBP2_1371 (SGQKGHAPCSSVLGR; listed as Homo sapiens) | 1.24
LTBP2_1584 (SSEVYAQLCNVAR; listed as Homo sapiens) | 1.40

The next lines start with the values.

logFC.mWT.over.Lux | Substance
2.33 | IGFBP3_200 (FSSESKR; listed as Homo sapiens)
3.99 | IGFBP7_101 (AAGGPGVSGVCVCKSR; listed as Homo sapiens)
0.87 | LASP1_123 (HEEFEKSR; listed as Homo sapiens)
4.83 | LGALS1_53 (HGDANTIVCNSKDGGAWGTEQR; listed as Homo sapiens)
4.70 | LGALS3BP_447 (FQAPSDYR; listed as Homo sapiens)
0.99 | LOXL1_219 (VASAGVIYPYQPR; listed as Homo sapiens)
3.37 | LOXL2_37 (FQQPAPEYHQPQAPANVAKIQLR; listed as Homo sapiens)
0.78 | LOXL2_318 (AYKPEQPLVR; listed as Homo sapiens)
0.88 | LOX_58 (LSLGSQYQPQR; listed as Homo sapiens)
1.38 | LOX_81 (NASAQQPR; listed as Homo sapiens)
1.60 | LOX_123 (HWFQAGYSTSR; listed as Homo sapiens)
3.70 | LOX_124 (WFQAGYSTSR; listed as Homo sapiens)
1.61 | LOX_126 (QAGYSTSR; listed as Homo sapiens)
2.83 | LTBP1_540 (HQQVIPHVYPVAAKTQLGR; listed as Homo sapiens)
1.80 | LTBP2_485 (SVQIHQVAQVR; listed as Homo sapiens)
1.54 | LTBP2_760 (SSGALPGPAER; listed as Homo sapiens)
0.74 | LTBP2_1023 (GKCTNLEGSFR; listed as Homo sapiens)
0.94 | LTBP2_1560 (TTYTECCCQDGEAWSQQCALCPPR; listed as Homo sapiens)
